Assays:
[1] = biological target: the molecule itself; assay: crystal structure; Nce103ΔN13, hanging drop vapor diffusion at 16°C; 20% PEG4000, 0.1 M sodium citrate pH 5.6, 0.1 M sodium acetate, 20% ethylene glycol; two molecules in the asymmetric unit; 2.04 Å
[2] = biological target: the molecule itself; assay: not stated; oligomeric state in solution, noted during purification (Ni2+ affinity, Superdex 75 gel filtration); how it was determined is not told

Protein | stoichiometry N [1] | stoichiometry N [2]
Nce103ΔN13 (enzyme, S. cerevisiae, UniProt P53615 14-221, looked up, Carbonic anhydrase Nce103 (β-class), S. cerevisiae strain S288C, ORF YNL036W, without the N-terminal 13 residues; residues His14 to Lys221; One zinc ion for each subunit; In the crystal the His tag, His14-Ser16 and Pro41-Gln48 are not seen in the density; also called truncated NCE103 without the N-terminal 13 residues; β-CA Nce103/YNL036W; source: for crystallization in 20 mM acetate buffer, pH …) HNSNLQDILAANAKWASQMNNIQPTLFPDHNAKGQSPHTLFIGCSDSRYNENCLGVLPGEVFTWKNVANICHSEDLTLKATLEFAIICLKVNKVIICGHTDCGGIKTCLTNQREALPKVNCSHLYKYLDDIDTMYHEESQNLIHLKTQREKSHYLSHCNVKRQFNRIIENPTVQTAVQNGELQVYGLLYNVEDGLLQTVSTYTKVTPK | 2 | 
Nce103ΔN50 (enzyme, S. cerevisiae, UniProt P53615 51-221, looked up, Carbonic anhydrase Nce103 (β-class), S. cerevisiae strain S288C, ORF YNL036W, residues His51-Lys221; the tag is probably N-terminal here too; also called truncated NCE103 without the N-terminal 50 residues) HTLFIGCSDSRYNENCLGVLPGEVFTWKNVANICHSEDLTLKATLEFAIICLKVNKVIICGHTDCGGIKTCLTNQREALPKVNCSHLYKYLDDIDTMYHEESQNLIHLKTQREKSHYLSHCNVKRQFNRIIENPTVQTAVQNGELQVYGLLYNVEDGLLQTVSTYTKVTPK |  | 2

Source: paper PMC2775743, “Structural insights into the substrate tunnel of Saccharomyces cerevisiae carbonic anhydrase Nce103” (BMC Structural Biology, 2009)
